Assay results as given in patent US6485937.

Molecular target: FLAG-epitope tagged HIV tat interacting protein of 30 kDa (f-TIP30) (human (isolated from HeLa cells)) (UniProt Q9BUP3)
Experiment: affinity chromatography of B. mori fat bodies extract, SDS-PAGE of the unbound fraction; the filing puts this down to saturated beads

Sequence of UniProt Q9BUP3 (Q9BUP3 other isoform, or with tags, fused parts or gaps limits assumed): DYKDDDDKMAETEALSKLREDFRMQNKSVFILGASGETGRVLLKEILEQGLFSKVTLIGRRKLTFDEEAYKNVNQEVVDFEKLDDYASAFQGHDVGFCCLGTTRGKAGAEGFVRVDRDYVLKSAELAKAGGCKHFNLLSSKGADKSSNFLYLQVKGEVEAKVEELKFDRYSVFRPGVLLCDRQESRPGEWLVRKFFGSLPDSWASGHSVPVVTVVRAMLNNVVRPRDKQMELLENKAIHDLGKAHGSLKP

Work on M2-Agarose resin (Sigma) (antibody) yielded a share of expressed protein remaining in the unbound fraction greater than 30%.
